According to patent publication US20210130452A1 (Merck KGaA, published 2021):
Positions count from the first letter of the chain named.

Tests used:
human IL-17F [1] = molecular target: T1, human IL-17F (human, UniProt Q96PD4 31-163); assay: competition ELISA IL17F-RC
T1 construct: GenBank AF384857, expressed in Hek293 as 6-His C-terminal tagged protein; also called hIL-17F; IL-17F-6HIS
T1 sequence: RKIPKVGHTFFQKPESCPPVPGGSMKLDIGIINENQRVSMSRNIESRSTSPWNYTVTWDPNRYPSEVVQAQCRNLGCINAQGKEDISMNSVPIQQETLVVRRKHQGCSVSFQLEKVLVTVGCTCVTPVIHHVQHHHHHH
Method: (§1) To this end, IL-17RA, respectively IL-17RC was coated at a concentration of 1 μg/ml in PBS.

human IL-17A [2] = molecular target: T2, human IL-17A (human, UniProt Q16552 24-155); assay: competition ELISA IL17A-RA
T2 construct: secreted form (GenBank U32659) expressed in Hek293 with C-terminal 6-His; also called hIL-17A; IL-17A-6HIS
T2 sequence (Q16552 other isoform, or with tags, fused parts or gaps): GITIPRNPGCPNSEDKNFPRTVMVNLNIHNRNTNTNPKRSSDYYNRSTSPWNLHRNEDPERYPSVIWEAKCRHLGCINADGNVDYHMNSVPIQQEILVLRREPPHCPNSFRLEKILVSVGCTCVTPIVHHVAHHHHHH
Method: as §1

human IL-17F [3] = molecular target: T1, human IL-17F; assay: cell-based or functional assay
human IL-17A [4] = molecular target: T2, human IL-17A; assay: cell-based or functional assay
[5] = molecular target: T3, human IL-17A/F heterodimer (human, UniProt Q16552 24-155; Q96PD4 31-163, limits assumed, biotinylated with Sulfo-NHS-LC-Biotin in the AlphaScreen assays only); assay: SPR Biacore, hIL-17A/F on chip; periplasmic extract (*)
T3 construct: also called hIL-17A/F
Target sequence in this assay (Q16552 24-155 limits assumed, one chain of several): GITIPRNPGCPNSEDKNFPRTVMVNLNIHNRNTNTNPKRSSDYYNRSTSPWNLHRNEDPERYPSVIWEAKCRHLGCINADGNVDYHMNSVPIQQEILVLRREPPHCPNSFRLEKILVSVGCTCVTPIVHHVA
Method: Off-rates of the periplasmic extracts containing anti-IL-17 Nanobodies were measured by Surface Plasmon Resonance (SPR) using a Biacore T100 instrument. […] Periplasmic extracts containing IL-17 neutralizing Nanobodies were injected for 2 minutes at a flow rate of 45 μl/min to allow binding to chip-bound antigen. Next, binding buffer without periplasmic extracts was sent over the chip at the same flow rate to allow spontaneous dissociation of bound Nanobody. From the sensorgrams obtained for the different periplasmic extracts koff-values (k₄) were calculated.

human IL-17A [6] = molecular target: T4, human IL-17A (human, UniProt Q16552 24-155, biotinylated with Sulfo-NHS-LC-Biotin in the AlphaScreen assays only); assay: AlphaScreen competition, hIL-17A - IL-17RC-Fc;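 further: Read-out after 1 h at room temperature with the receptor Fc-fusion, Acceptor beads and streptavidin-coated Donor beads present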
T4 construct: also called hIL-17A; recombinant human IL-17A
Method: (§2) To this mixture, the IL-17RA or IL-17RC Fc-fusions, Acceptor beads and the streptavidin Donor beads were added and further incubated for 1 hour at RT.

human IL-17A [7] = molecular target: T4, human IL-17A; assay: SPR Biacore, hIL-17A on chip; periplasmic extract (*)
human IL-17F [8] = molecular target: T5, human IL-17F (human, UniProt Q96PD4 31-163, biotinylated with Sulfo-NHS-LC-Biotin in the AlphaScreen assays only); assay: SPR Biacore, hIL-17F on chip; periplasmic extract (*); NB = no binding
T5 construct: also called hIL-17F; recombinant human IL-17F
T5 sequence: T1 sequence

[9] = molecular target: T3, human IL-17A/F heterodimer; assay: AlphaScreen competition, hIL-17A/F - IL-17RA-Fc
Target sequence in this assay (Q16552 24-155 limits assumed, chain 1 of 2, one chain of several): as the sequence (Q16552 24-155 limits assumed, one chain of several) above
Method: as §2

[10] = molecular target: T3, human IL-17A/F heterodimer; assay: AlphaScreen competition, hIL-17A/F - IL-17RC-Fc
Target sequence in this assay (Q16552 24-155 limits assumed, chain 1 of 2, one chain of several): as the sequence (Q16552 24-155 limits assumed, one chain of several) above
Method: as §2

human IL-17A [11] = molecular target: T4, human IL-17A; assay: AlphaScreen competition, hIL-17A - IL-17RA-Fc;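 further: receptor Fc-fusion plus Acceptor and streptavidin Donor beads incubated with the mixture for 1 h at room temperature before reading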
Method: as §2

human IL-17A [12] = molecular target: T4, human IL-17A; assay: cell-based or functional assay
[13] = molecular target: T3, human IL-17A/F heterodimer; assay: cell-based or functional assay
human IL-17F [14] = molecular target: T5, human IL-17F; assay: AlphaScreen competition, hIL-17F - IL-17RC-Fc
Method: as §2

human IL-17A [15] = molecular target: T6, human IL-17A (human, UniProt Q16552 24-155); assay: AlphaScreen hIL-17A-IL-17RA; vs IL17MS13B03
T6 construct: secreted form made in Hek293 cells (GenBank U32659); also called hIL-17A; hIL17A
T6 sequence (Q16552 other isoform, or with tags, fused parts or gaps): as the sequence (Q16552 other isoform, or with tags, fused parts or gaps) above

human IL-17F [16] = molecular target: T7, human IL-17F (human, UniProt Q96PD4 31-163); assay: SPR (Biacore) off-rate
T7 construct: made in Hek293 cells (GenBank AF384857); also called hIL-17F; hIL17F
T7 sequence: T1 sequence

human IL-17A [17] = molecular target: T6, human IL-17A; assay: SPR (Biacore) off-rate
[18] = molecular target: T8, human IL-17A/F heterodimer (human, UniProt Q16552 24-155; Q96PD4 31-163, limits assumed); assay: SPR (Biacore) off-rate
T8 construct: bought, made in E. coli (R&D Systems 5194-IL/CF); also called hIL-17A/F; hIL17A/F

human IL-17F [19] = molecular target: T7, human IL-17F; assay: AlphaScreen hIL-17F-IL-17RC; vs IL17MS13B03
mouse IL-17A = molecular target: T9, mouse IL-17A (mouse, UniProt Q62386 26-158); assay: ELISA, coated IL-17A
T9 sequence (looked up): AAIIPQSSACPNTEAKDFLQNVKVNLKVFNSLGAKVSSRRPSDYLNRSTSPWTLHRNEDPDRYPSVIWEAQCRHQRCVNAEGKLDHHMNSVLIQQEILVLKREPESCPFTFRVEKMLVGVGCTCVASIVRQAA
Method: (§3) Binding of a selected panel of anti-IL-17 Nanobodies to IL-17 of other species was assessed using a binding ELISA. […] HRP (horseradish peroxidase) conjugated anti-myc (Serotec, MCA 2200P) was used for detection using esTMB as substrate.

guinea pig IL-17A = guinea pig IL-17A (guinea pig); assay: ELISA, coated IL-17A
Method: as §3

marmoset IL-17A = molecular target: T10, marmoset IL-17A (marmoset, IL-17A is a disulfide-linked homodimer. One chain is given.); assay: ELISA, coated IL-17A
T10 chain: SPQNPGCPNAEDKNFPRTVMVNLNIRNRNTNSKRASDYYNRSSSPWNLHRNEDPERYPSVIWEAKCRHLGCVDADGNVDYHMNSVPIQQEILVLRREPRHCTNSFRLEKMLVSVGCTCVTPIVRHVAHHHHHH
Method: as §3

rat IL-17A = molecular target: T11, rat IL-17A (rat, UniProt Q61453 18-150, limits assumed); assay: ELISA, coated IL-17A
T11 sequence (looked up): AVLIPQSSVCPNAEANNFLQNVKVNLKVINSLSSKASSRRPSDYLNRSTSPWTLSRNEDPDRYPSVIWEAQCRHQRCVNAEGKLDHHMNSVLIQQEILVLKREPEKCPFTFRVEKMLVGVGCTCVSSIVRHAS
Method: as §3

human IL-17A [20] = molecular target: T2, human IL-17A; assay: ELISA, coated IL-17A
Method: as §3

human IL-17A [21] = molecular target: T2, human IL-17A; assay: SPR, IL-17A-Nanobody complex over captured IL-17RA
From the text: (§4) The receptor (IL-17RA or IL-17RC) was captured via its human Fc-tail by an anti-human IgG-Fc antibody coated on the chip.

human IL-17F [22] = molecular target: T1, human IL-17F; assay: SPR, IL-17F-Nanobody complex over captured IL-17RC
From the text: as §4

mouse IL-17F = molecular target: T12, mouse IL-17F (mouse, UniProt Q7TNI7 29-161); assay: ELISA, coated IL-17F;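 further: binding ELISA on coated antigen from various species, with bound Nanobodies revealed by an HRP-linked anti-myc antibody and esTMB substrate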
T12 sequence (looked up): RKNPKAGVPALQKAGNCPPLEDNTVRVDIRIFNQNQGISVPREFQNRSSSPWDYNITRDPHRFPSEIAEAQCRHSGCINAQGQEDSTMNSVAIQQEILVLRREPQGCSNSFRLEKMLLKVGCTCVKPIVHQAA
Method: as §3

rat IL-17F = molecular target: T13, rat IL-17F (rat, UniProt Q5BJ95 29-161); assay: ELISA, coated IL-17F;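 further: binding ELISA on coated antigen from various species, with bound Nanobodies revealed by an HRP-linked anti-myc antibody and esTMB substrate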
T13 sequence (looked up): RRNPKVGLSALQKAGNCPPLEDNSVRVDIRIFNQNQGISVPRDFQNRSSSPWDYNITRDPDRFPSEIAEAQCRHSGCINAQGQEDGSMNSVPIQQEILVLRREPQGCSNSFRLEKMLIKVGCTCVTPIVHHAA
Method: as §3

human IL-17F [23] = molecular target: T1, human IL-17F; assay: ELISA, coated IL-17F;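 further: binding ELISA on coated antigen from various species, with bound Nanobodies revealed by an HRP-linked anti-myc antibody and esTMB substrate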
Method: as §3

T8 sequence (Q16552 24-155 limits assumed, chain 1 of 2, one chain of several): as the sequence (Q16552 24-155 limits assumed, one chain of several) above
T4 sequence (Q16552 other isoform, or with tags, fused parts or gaps): as the sequence (Q16552 other isoform, or with tags, fused parts or gaps) above

B1: SH-Fc-(GS)2-13E02 (Fc fusion, not shown: a dimerising Fc or GST; small tags and cut ends)
chain: EVQLVESGGGLVQAGGSLRLSCAASGRTYDAMGWLRQAPGKEREFVAAISGSGDDTYYADSVKGRFTISKDNAGITMYLQMNSLKPEDTAVYYCATRRGLYYVWDSNDYENWGQGTQVTVSS
notes: also called MSB0010619; SH-(GS)2-Fc-13E02
- IC50 (human IL-17F [1]): 0.267 nM
- IC50 (human IL-17A [2]): 0.112 nM
- IC50, hIL-17F induced IL-6, HT-1080, without HSA (human IL-17F [3]): 4.9 nM
- IC50, hIL-17A induced IL-6, HT-1080, without HSA (human IL-17A [4]): 0.31 nM

B2: 01D06 (VHH)
VHH: EVQLVESGGGLVQAGGSLRLSCAADGRTFSTYGMTWFRQVPGKEREFVAHIPRSTYSPYYANSVKGRFTIARDDAKSTVYLQMNSLKPEDTAVYYCAVFTGGTYYVPTAYDYWGQGTQVTVSS
notes: Class 2 Nanobody (anti-IL-17A and IL-17A/F); not shown: c-myc, His6 tag
- koff [5]: 0.0013 s⁻¹
- IC50 (human IL-17A [6]): 1.52 nM
- koff (human IL-17A [7]): 0.00097 s⁻¹
- binding result (human IL-17F [8]): no binding
- IC50 [9]: 0.401 nM
- IC50 [10]: 0.198 nM
- IC50 (human IL-17A [11]): 0.618 nM
- IL-17A-induced IL-6 production in HT-1080 cells, Emax (human IL-17A [12]): 98.3%
- IL-17A-induced IL-6 production in HT-1080 cells, IC50 (human IL-17A [12]): 42.8 nM
- IL-17A/F-induced IL-6 production in HT-1080 cells, Emax [13]: 79.5%
- IL-17A/F-induced IL-6 production in HT-1080 cells, IC50 [13]: 51.1 nM

B3: 04A02 (VHH)
VHH: EVQLVESGGGLVQPGGSLRLSCAASRNINIINYMAWYRQAPGNQRELVAAMTSDATTEYADSVKGRFTISRDIPENTVYLQMNSLKPEDTAVYYCNAKGIWDYLGRRDFGDYWGQGTQVTVSS
notes: as for B2
- koff [5]: 0.011 s⁻¹
- IC50 (human IL-17A [6]): 0.837 nM
- koff (human IL-17A [7]): 0.0013 s⁻¹
- binding result (human IL-17F [8]): no binding
- IC50 [9]: 1.96 nM
- IC50 [10]: 3.17 nM
- IC50 (human IL-17A [11]): 0.399 nM
- IL-17A-induced IL-6 production in HT-1080 cells, Emax (human IL-17A [12]): 102%
- IL-17A-induced IL-6 production in HT-1080 cells, IC50 (human IL-17A [12]): 12.6 nM
- IL-17A/F-induced IL-6 production in HT-1080 cells, Emax [13]: 67.6%
- IL-17A/F-induced IL-6 production in HT-1080 cells, IC50 [13]: 70.4 nM

B4: 09D10 (VHH)
VHH: EVQLVESGGGLVQAGGSLSLSCAASGSVFRIDVMRWHRQAPGKQREFLASIASGGTTNYADSVKGRFTISRDNAKNTVYLQMNSLKPEDTAVYYCGANAESGPYTYWGLGTQVTVSS
notes: as for B2
- koff [5]: 0.0017 s⁻¹
- IC50 (human IL-17A [6]): 1.12 nM
- koff (human IL-17A [7]): 0.00015 s⁻¹
- IC50 (human IL-17F [14]): 69.4 nM
- IC50 [9]: 9.02 nM
- IC50 [10]: 8.65 nM
- IC50 (human IL-17A [11]): 0.211 nM
- IL-17A-induced IL-6 production in HT-1080 cells, Emax (human IL-17A [12]): 93.5%
- IL-17A-induced IL-6 production in HT-1080 cells, IC50 (human IL-17A [12]): 8.5 nM
- IL-17A/F-induced IL-6 production in HT-1080 cells, Emax [13]: 55%
- IL-17A/F-induced IL-6 production in HT-1080 cells, IC50 [13]: 124 nM

B5: IL17MS3047 (VHH)
VHH: EVQLVESGGGLVQPGGSLRLSCAASGRANSINWFGWFRQAPGKEREFVAGIRWSDAYTEYAASVKGRFTISRDNSKNTVYLQMNSLRPEDTAVYYCVLDLSTVRYWGQGTLVTVSS
notes: variant of IL17MS13B03; Kabat numbering
- IC50 fold difference compared to WT (human IL-17A [15]): 1.1 fold
- koff (human IL-17F [16]): 0.00348 s⁻¹
- koff (human IL-17A [17]): 0.000252 s⁻¹
- koff [18]: 0.000538 s⁻¹
- IC50 fold difference compared to WT (human IL-17F [19]): 0.7 fold

B6: IL17MS3053 (VHH)
VHH: EVQLVESGGGSVQAGDSLRLSCAASGRANTINWFGWFRQTPGKEREFVAGIRWSDAYTEYANSVKGRFTISRDNAKNTVDLQMDSLKPEDTAVYYCVLDLSTVRYWGQGTQVTVSS
notes: as for B5
- IC50 fold difference compared to WT (human IL-17A [15]): 1.3 fold
- koff (human IL-17F [16]): 0.00982 s⁻¹
- koff (human IL-17A [17]): 0.000258 s⁻¹
- koff [18]: 0.00052 s⁻¹
- IC50 fold difference compared to WT (human IL-17F [19]): 1.2 fold

B7: IL17MS3052 (VHH)
VHH: B6 VHH with N29S, T30S
notes: as for B5
- IC50 fold difference compared to WT (human IL-17A [15]): 0.9 fold
- koff (human IL-17F [16]): 0.00439 s⁻¹
- koff (human IL-17A [17]): 0.000289 s⁻¹
- koff [18]: 0.000518 s⁻¹
- IC50 fold difference compared to WT (human IL-17F [19]): 0.5 fold

B8: IL17MS3051 (VHH)
VHH: B6 VHH with N29F, T30S
notes: as for B5
- IC50 fold difference compared to WT (human IL-17A [15]): 1.4 fold
- koff (human IL-17F [16]): 0.00216 s⁻¹
- koff (human IL-17A [17]): 0.000205 s⁻¹
- koff [18]: 0.000396 s⁻¹
- IC50 fold difference compared to WT (human IL-17F [19]): 0.4 fold

B9: 17C01 (VHH)
VHH: EVQLVESGGRLVQAGGSLRLPCAASGRTFTSYPMGWFRQAPGKEREFVAAISMSGDDAAYADFVRGRFTISRDDARNTVYLHMTSLKPEDTAVYYCAARTSYDGTYDYIDDYSYWGQGTQVTVSS
notes: Class 4
- OD (mouse IL-17A): -0.001 OD
- OD (guinea pig IL-17A): 0.007 OD
- OD (marmoset IL-17A): 1.84 OD
- OD (rat IL-17A): 0 OD
- OD (human IL-17A [20]): 1.83 OD
- % Biacore binding (IL-17A-NB)-IL-17RA (human IL-17A [21]): -2.01%
- % Biacore binding (IL-17F-NB)-IL-17RC (human IL-17F [22]): 32.5%
- OD (mouse IL-17F): -0.0005 OD
- OD (rat IL-17F): 0.0025 OD
- OD (human IL-17F [23]): 0.772 OD
